Experimental data taken from patent publication US20160326219A1, “OPTICALLY ACTIVATED RECEPTORS” (IST AUSTRIA (INSTITUTE OF SCIENCE AND TECHNOLOGY AUSTRIA), priority 2013, published 2016).

Tests used:
[1] = test system: hBE cells; test: In vitro angiogenesis (sprouting) assay (hBE cells); assay type: cell-based; details: hBE cell spheroids, FIGS. 7b and c
Experimental: For spheroid generation, hBE cells were suspended as hanging drops (450 cells in a 25 μl drop) in M199 medium (Sigma) supplemented with 10% FBS, L-glutamine, 2.2 g/I NaHCO3 and 20% methylcellulose (Sigma) over night in a standard tissue culture incubator. The following day, spheroids were washed in PBS containing 10% FBS, centrifuged, resuspended in Methocel/20% FBS, mixed (1:1) with neutralized rat-tail collagen and seeded into non-adhesive 24-well plates (Greiner Bio-one, Kremsmünster, Austria). After solidification of the collagen, VEGFA (30 ng/ml) or PD166866 (10 μM) were added. Plates were stimulated with light for 5 min every 20 min for 10 h or kept in the dark. After stimulation, 1 ml of 8% paraformaldehyde was added to each well and spheroids were photographed on the Nikon microscope. Cumulative sprout lengths per sphere from at least 8 spheroids per group were measured (ImageJ).

[2] = test system: MAPK pathway; test: Stimulation and detection of MAPK signaling, PathDetect Elk1 luciferase reporter (HEK293 cells); assay type: cell-based, human
Experimental: For light stimulation of cells, an incubator (PT2499, ExoTerra/HAGEN, Holm, Germany) was equipped with 300 light emitting diodes (JS-FS505ORGB-W30 with JS-CON-004 controller, Komerci, Ebern, Germany; λmax˜630 nm (red), λmax˜530 nm (green), λmax˜470 nm (blue), bandwidth ˜±5 nm). Light intensity was controlled with an analog dimmer and measured with a digital power meter (PM120VA, Thorlabs, Munich, Germany). Intensities at maximal output were 2.3 (red), 2.6 (green) and 3.3 (blue light) W/m^2. For stimulation over extended time periods (>8 h), an aluminium box was equipped with the same light-emitting diodes and controller and placed in an incubator with standard tissue culture conditions (see below).
HEK293 cells and CHO-K1 (American Type Culture Collection (ATCC), Manassas, Va.) cells were maintained in DMEM supplemented with 10% FBS, 100 U/ml penicilin and 0.1 mg/ml streptomycin in a humidified incubator with 5% CO2 atmosphere. After trypsination, 5×10^4 cells were seeded in each well of 96-well plates (three to four wells for each construct) coated with poly-L-ornithine (Sigma, Vienna, Austria). Either transparent plates or black clear bottom plates were used. Cells were transfected using Lipofectamine 2000 (Invitrogen/LifeTech).
Phycocyanobilin (PCB; Livchem Logistics GmbH, Frankfurt a.M., Germany) was dissolved in a dark room to a stock concentration of 10 mM in DMSO. Aliquots were stored in the dark at −20° C. Prior to experiments, cells were incubated with 50 μM PCB overnight in reduced serum starve medium at 37° C. PCB could also be applied to applied to living animals as it is non-toxic even in high doses (0.17% of diet or 10 mg/kg) (McCarty (2007).
Activation of the MAPK pathway was assayed with the PathDetect Elk1 trans-Reporting System (Agilent) consisting of an Elk1 phosphorylation-dependent trans-activator and a luciferase-based trans-reporter. Cells were transfected with 213.3 ng total DNA per well (receptor, trans-activator and trans-reporter at ratio of 1:3:60 or 1:30:600) using Lipofectamine 2000. Six h after transfection medium was replaced with CO2-independent reduced serum starve medium (Gibco/Life Technologies; supplemented with 0.5% FBS, 2 mM L-Glutamine, 100 U/ml penicilin and 0.1 mg/ml streptomycin) for 18 h at 37° C. Cells were transferred and were either kept under constant illumination for 8 h or were protected from light. Chemical stimulation of imFGFR1 followed the same procedure, except that 10 nM AP20187 ((Clackson 1998); ARIAD Pharmaceuticals, Cambridge, Mass.) were added before transfer to the stimulation incubator. After incubation, plates were washed once with PBS and luciferase was detected with standard, off-the-shelf reagents. These were either Luciferase 1000 Assay System (Promega, Mannheim, Germany) in combination with a microplate reader equipped with an injector (Tecan Infinite 200 Pro, Maennedorf, Switzerland), or ONE-Glo Assay System (Promega) in combination with a microplate reader not equipped with an injector (BioTek Synergy H1). These assay systems provide equivalent results.

[3] = test system: blood endothelial cells; test: Stimulation and Western blot (hBE cells); assay type: cell-based; details: ~3 μW/mm^2
From the text: (§1) M38K and SPC212, two malignant pleural mesothelioma cell lines, were maintained in RPMI1640 supplemented with 10% FBS. Telomerase-immortalized microvascular hBE cells were maintained in Clonetics EGM2 MV endothelial growth medium (Lonza, Wakersville, Md.) supplemented with 5% FBS. For retrovirus generation, Opto-mFGFR1 or mCherry as control was subcloned into pQCXIP (Clontech, Mountain View, Calif.) using EcoRI and NotI restriction enzymes. Viral particles were generated in HEK293 cells by co-transfection with the helper plasmids pVSV-G and p-gag-pol-gpt. Supernatants were used to transduce M38K, SPC212 or hBE cells grown to 50% confluency in 6-well plates. Cells were selected with 0.8 μg/ml puromycin for 10 d and transgene expression was verified by immunoblotting.
(§2) For immunoblotting, 5×10^5 cells were seeded in each well of 6-well plates. After 24 h, medium was replaced with reduced serum medium (M38K, SPC212). After additional 20 h, cells were transferred to the stimulation incubator and illuminated for 1, 5 or 15 min or shielded from light. Cells were then either immediately or after additional 5, 15 or 30 min in the dark washed and lysed in 50 μl lysis buffer per well on ice. Lysates were sonicated and centrifuged (12000 g, 5 min, 4° C.). […] Chemiluminescence was developed with WesternC reagent (Biorad, Hercules, Calif.) and signals recorded on X-ray film (GE Healthcare).

[4] = test system: M38K cells; test: Stimulation and Western blot (M38K cells); assay type: cell-based, human; details: ~3 μW/mm^2
From the text: as §1, §2

B1: Opto-mFGFR1: chimeric receptor of mFGFR1 intracellular domain and VfAU1-LOV, SEQ ID NO: 58 (protein)
chain: MGSSKSKPKDPSQRLDMKSGTKKSDFHSQMAVHKLAKSIPLRRQVTVSADSSASMNSGVLLVRPSRLSSSGTPMLAGVSEYELPEDPRWELPRDRLVLGKPLGEGCFGQVVLAEAIGLDKDKPNRVTKVAVKMLKSDATEKDLSDLISEMEMMKMIGKHKNIINLLGACTQDGPLYVIVEYASKGNLREYLQARRPPGLEYCYNPSHNPEEQLSSKDLVSCAYQVARGMEYLASKKCIHRDLAARNVLVTEDNVMKIADFGLARDIHHIDYYKKTTNGRLPVKWMAPEALFDRIYTHQSDVWSFGVLLWEIFTLGGSPYPGVPVEELFKLLKEGHRMDKPSNCTNELYMMMRDCWHAVPSQRPTFKQLVEDLDRIVALTSNQEYLDLSIPLDQYSPSFPDTRSSTCSSGEDSVFSHEPLPEEPCLPRHPTQLANSGLKRRVETGPDYSLVKALQMAQQNFVITDASLPDNPIVYASRGFLTLTGYSLDQILGRNCRFLQGPETDPRAVDKIRNAITKGVDTSVCLLNYRQDGTTFWNLFFVAGLRDSKGNIVNYVGVQSKVSEDYAKLLVNEQNIEYKGVRTSNMLRRKTGGSGVDYPYDVPDYALD
modifications: mFGFR1-VfAU1-LOV
Q: Which “Morphological alterations (sprouting) upon blue light illumination” value [1] does the source give for B1 here?
A: Its value is “induced morphological alterations”.

Q: What about the “MAPK pathway activation in response to blue light” value ([2]; HEK293 cells expressing the fusion protein (LOV domain fused to RTK intracellular domain), ~3 μW/mm^2) of the same molecule?
A: Its value is “activated the MAPK pathway similarly to imFGFR1”.

Q: What about the “MAPK pathway activation in response to green light or red light” value ([2]; HEK293 cells, control experiment) of the same molecule?
A: The value was “no effect”.

Q: And the “Activation by blue light after reducing the lifetime of VfAU1-LOV ~8-fold by mutation” value ([2]; I472V, HEK293 cells, FIG. 5c)?
A: The value was “reduces Opto-mFGFR1 activation”.

Q: What about the “MAPK pathway activation in response to blue light after loss of kinase activity” value ([2]; kinase dead (Y271F, Y272F), HEK293 cells) of the same molecule?
A: Its value is “no effect”.

Q: What about the “Blue light intensity at which activated” value ([2]; low intensity blue light) of the same molecule?
A: Its value is about 3 μW/mm^2.

Q: What about the “Phosphorylation upon blue light stimulation” value [3] of the same molecule?
A: The value was “rapid phosphorylation of Opto-mFGFR1 and ERK1/2”.

Q: And the “Phosphorylation upon blue light stimulation” value [4]?
A: Its value is “rapid phosphorylation of Opto-mFGFR1 and ERK1/2”.
